Assay results reported in publication PMC4460036.

Molecular target: Fibrillar-type I Horm collagen from equine tendon (equine)
Assay: not stated; apparent constants (KDapp) of recombinant soluble GPVI for collagen; method and conditions not told

Kd [nM]	Substance
5	GPVI-Fc (extracellular domain of human GPVI fused to the Fc domain of human Igs) (from UniProt Q9HCN6 21-267) (Fc fusion)
270	GPVI-His (extracellular domain of human GPVI fused to a poly-His tag) (from UniProt Q9HCN6 21-267) (domain or fragment)
